Measured values published in PMC12804970, “Molecular basis of XPF-ERCC1 targeting to SLX4-dependent DNA repair pathways” (Nature Communications, 2025).

Target: T1, His6-XPF (xeroderma pigmentosum complementation group F), wild type (human, UniProt Q92889 1-916)
T1 construct: XPF (ERCC4), human; Always co-expressed with ERCC1; also called ERCC4; XPF^WT; source: Sf9 (small-scale assays: Sf9 or Hi5), baculovirus co-expression with ERCC1; purified as complexes (Ni-NTA or Strep-Tactin, Capto HiRes Q, Superdex 200) or in insect cell lysate; not shown: His6, N-terminal, kept
Test: co-purification (Strep-Tactin, ion exchange, SEC); co-infection of Sf9 with His6-XPF-ERCC1(-SLX4IP) and Twin-Strep-SLX4 fragment viruses; capture by the Twin-Strep tag on SLX4 on Strep-Tactin, 250 mM KCl, 40 mM HEPES-KOH pH 7.9, then Capto HiRes Q and Superdex 200; SDS-PAGE
Settings: partners not purified

B1: Twin-Strep-SLX4^330-555 (domain or fragment, human, UniProt Q8IY92 330-555, looked up)
chain: VPQIPECPICGKPFLTLKSRTSHLKQCAVKMEVGPQLLLQAVRLQTAQPEGSSSPPMFSFSDHSRGLKRRGPTSKKEPRKRRKVDEAPSEDLLVAMALSRSEMEPGAAVPALRLESAFSERIRPEAENKSRKKKPPVSPPLLLVQDSETTGRQIEDRVALLLSEEVELSSTPPLPASRILKEGWERAGQCPPPPERKQSFLWEGSALTGAWAMEDFYTARLVPPLV
notes: from clone HsCD00821809 (DNASU) in vector 438-Sn; source: Sf9 (small-scale assays: Sf9 or Hi5), baculovirus co-infection with His6-XPF-ERCC1(-SLX4IP); purified as complexes (Strep-Tactin, Capto HiRes Q, Superdex 200) or in insect cell lysate; not shown: twin-Strep, N-terminal, kept
binding result: binds
